In US8986997B2, “Methods and compositions for increasing biological molecule stability” (The Regents of the University of Michigan, priority 2007, dated 2015):
“Also recorded” adds a separate entry of the source.

Tests used:
colicin E7 = target: T1, colicin E7 (Escherichia coli, UniProt Q47112); conditions: in words; listed as Im7; cited from earlier work
T1 sequence (Q47112 1-576): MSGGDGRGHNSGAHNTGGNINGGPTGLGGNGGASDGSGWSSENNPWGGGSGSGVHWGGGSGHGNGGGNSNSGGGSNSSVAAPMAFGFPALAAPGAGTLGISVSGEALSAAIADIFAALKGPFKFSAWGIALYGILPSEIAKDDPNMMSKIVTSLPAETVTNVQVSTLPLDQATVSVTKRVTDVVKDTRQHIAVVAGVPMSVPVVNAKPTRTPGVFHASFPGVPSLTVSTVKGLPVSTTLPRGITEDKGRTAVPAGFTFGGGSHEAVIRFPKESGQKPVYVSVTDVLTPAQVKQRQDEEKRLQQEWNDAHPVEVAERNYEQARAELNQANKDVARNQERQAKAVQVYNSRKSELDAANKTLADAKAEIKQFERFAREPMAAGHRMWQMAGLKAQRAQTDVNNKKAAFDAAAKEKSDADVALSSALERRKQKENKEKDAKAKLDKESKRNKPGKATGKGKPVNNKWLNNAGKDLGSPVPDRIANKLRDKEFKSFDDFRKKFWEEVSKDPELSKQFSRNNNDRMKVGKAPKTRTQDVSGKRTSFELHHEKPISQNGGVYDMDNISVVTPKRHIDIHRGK

[1] = Equilibrium unfolding experiments (urea denaturation, folding free energy); assay type: physicochemical
Method: Proteins were dissolved to a concentration of approximately 100 μM in 50 mM Tris-Cl buffer at pH 7.5, containing 400 mM Na2SO4. Substocks of each mutant were made up in the same buffer containing 0, 2, 4, 6 and 8 M urea. These substocks were titrated into a black polypropylene 384 well microtitre plate (Greiner) to create eight replicates of a urea titration from 0 to 8 M urea in steps of 0.2 M urea, using a Hamilton Microlab Star robot. The plates were briefly centrifuged and incubated at 37° C. for one hour to allow the unfolding reaction to come to equilibrium. The tryptophan fluorescence of each sample was measured using a PerkinElmer EnVision platereader. The excitation wavelength was 280 nm and emission was measured using a 340-350 nm filter. Data were normalized and processed using Igor Pro (Wavemetrics). The entire dataset was fitted globally to a two-state equilibrium unfolding equation and the ΔG values for each Im7 variant were compared to that of the wildtype protein under identical conditions. ΔΔGUN=ΔGUN(mutant)−ΔGUN(wildtype)

[2] = wild type protein; in words; cited from earlier work

B1: Wildtype Im7: small helical protein that confers immunity to bacterial colicin E7 (protein)
chain: MELKNSISDYTEAEFVQLLKEIEKENVAATDDVLDVLLEHFVKITEHPDGTDLIYYPSDNRDDSPEGIVKEIKEWRAANGKPGFKQG
In the case of B1, the “affinity for colicin E7” value (colicin E7) is listed as “binds very tightly; also recorded: picomolar affinity”.

B2: N26K: Im7 variant more stable than Im7 wt, in Kan55-Im7 (protein)
chain: MELKNSISDYTEAEFVQLLKEIEKEKVAATDDVLDVLLEHFVKITEHPDGTDLIYYPSDNRDDSPEGIVKEIKEWRAANGKPGFKQG
For B2, the “stability of Im7 variant relative to Im7 wt” value [1] was “more stable”.

B3: G-CSF: granulocyte-colony stimulating factor, sold under the trademark names Neopogen and Neulasta (protein, UniProt P09919 31-207, looked up)
Granulocyte …: TPLGPASSLPQSFLLKCLEQVRKIQGDGAALQEKLVSECATYKLCHPEELVLLGHSLGIPWAPLSSCPSQALQLAGCLSQLHSGLFLYQGLLQALEGISPELGPTLDTLQLDVADFATTIWQQMEELGMAPALQPTQGAMPAFASAFQRRAGGVLVASHLQSFLEVSYRVLRHLAQP
For B3, the tendency to aggregate [2] is given as “high tendency to aggregate”.
